Laboratory results from the supplement of paper PMC9112550, “Optimization of the antimicrobial peptide Bac7 by deep mutational scanning” (BMC Biology, 2022).

Tested on: Escherichia coli TOP10
Assay: shrunken log2 fold change of peptide-encoding DNA abundance (4.5 h post-induction vs induction); higher = less antimicrobial activity (less host growth inhibition)
Conditions: time post-induction: 4.5 h; library: site-saturation at positions 5, 18, 19, 20
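Further: peptides expressed intracellularly from a pBAD plasmid library in pooled LB shake-flask culture, induced with 0.3% L-arabinose, DNA abundance read by NGS, three biological replicates, DESeq2 with apeglm shrinkage.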

RRIRIRPPRLPRPRPRPETRPRP
shrunken log2 fold change: -0.0624

RRIRIRPPRLPRPRPRPEVLPRP
shrunken log2 fold change: -0.0175

RRIRIRPPRLPRPRPRPEVMPRP
shrunken log2 fold change: -0.195

RRIRIRPPRLPRPRPRPEWLPRP
shrunken log2 fold change: -0.216

RRIRIRPPRLPRPRPRPEYIPRP
shrunken log2 fold change: -0.667

RRIRIRPPRLPRPRPRPEYPPRP
shrunken log2 fold change: -1.05

RRIRIRPPRLPRPRPRPEYQPRP
shrunken log2 fold change: 0.00783

RRIRIRPPRLPRPRPRPFACPRP
shrunken log2 fold change: -0.0925

RRIRIRPPRLPRPRPRPFAIPRP
shrunken log2 fold change: -0.886

RRIRIRPPRLPRPRPRPFASPRP
shrunken log2 fold change: -0.675

RRIRIRPPRLPRPRPRPFCEPRP
shrunken log2 fold change: -0.23

RRIRIRPPRLPRPRPRPFCPPRP
shrunken log2 fold change: -0.463

RRIRIRPPRLPRPRPRPFDFPRP
shrunken log2 fold change: -0.181

RRIRIRPPRLPRPRPRPFDSPRP
shrunken log2 fold change: 0.0157

RRIRIRPPRLPRPRPRPFDYPRP
shrunken log2 fold change: -0.182

RRIRIRPPRLPRPRPRPFEFPRP
shrunken log2 fold change: -0.00107

RRIRIRPPRLPRPRPRPFEYPRP
shrunken log2 fold change: -0.709

RRIRIRPPRLPRPRPRPFFHPRP
shrunken log2 fold change: -0.575

RRIRIRPPRLPRPRPRPFFLPRP
shrunken log2 fold change: -0.406

RRIRIRPPRLPRPRPRPFHKPRP
shrunken log2 fold change: -0.196

RRIRIRPPRLPRPRPRPFHNPRP
shrunken log2 fold change: -0.213

RRIRIRPPRLPRPRPRPFHRPRP
shrunken log2 fold change: -0.152

RRIRIRPPRLPRPRPRPFHSPRP
shrunken log2 fold change: -0.16

RRIRIRPPRLPRPRPRPFIAPRP
shrunken log2 fold change: -0.719

RRIRIRPPRLPRPRPRPFMTPRP
shrunken log2 fold change: -1.01

RRIRIRPPRLPRPRPRPFQGPRP
shrunken log2 fold change: 0.0801

RRIRIRPPRLPRPRPRPFQMPRP
shrunken log2 fold change: -0.271

RRIRIRPPRLPRPRPRPFSKPRP
shrunken log2 fold change: -0.05

RRIRIRPPRLPRPRPRPFSNPRP
shrunken log2 fold change: -0.28

RRIRIRPPRLPRPRPRPFTDPRP
shrunken log2 fold change: 0.0112

RRIRIRPPRLPRPRPRPFTKPRP
shrunken log2 fold change: -0.173

RRIRIRPPRLPRPRPRPFVCPRP
shrunken log2 fold change: -0.797

RRIRIRPPRLPRPRPRPFWNPRP
shrunken log2 fold change: -0.277

RRIRIRPPRLPRPRPRPGCEPRP
shrunken log2 fold change: -0.0688

RRIRIRPPRLPRPRPRPGCPPRP
shrunken log2 fold change: -0.304

RRIRIRPPRLPRPRPRPGEHPRP
shrunken log2 fold change: -0.0955

RRIRIRPPRLPRPRPRPGHSPRP
shrunken log2 fold change: 0.00697

RRIRIRPPRLPRPRPRPGHWPRP
shrunken log2 fold change: 0.0615

RRIRIRPPRLPRPRPRPGIIPRP
shrunken log2 fold change: -0.0859

RRIRIRPPRLPRPRPRPGIVPRP
shrunken log2 fold change: -0.399

RRIRIRPPRLPRPRPRPGKPPRP
shrunken log2 fold change: 0.217

RRIRIRPPRLPRPRPRPGKVPRP
shrunken log2 fold change: -0.621

RRIRIRPPRLPRPRPRPGLDPRP
shrunken log2 fold change: 0.0575

RRIRIRPPRLPRPRPRPGLMPRP
shrunken log2 fold change: -0.0194

RRIRIRPPRLPRPRPRPGNKPRP
shrunken log2 fold change: -0.569

RRIRIRPPRLPRPRPRPGNQPRP
shrunken log2 fold change: -0.839

RRIRIRPPRLPRPRPRPGPSPRP
shrunken log2 fold change: 0.108

RRIRIRPPRLPRPRPRPGQFPRP
shrunken log2 fold change: -0.0255

RRIRIRPPRLPRPRPRPGQQPRP
shrunken log2 fold change: 0.0905

RRIRIRPPRLPRPRPRPGQYPRP
shrunken log2 fold change: -0.221

RRIRIRPPRLPRPRPRPGRCPRP
shrunken log2 fold change: -0.0543

RRIRIRPPRLPRPRPRPGSAPRP
shrunken log2 fold change: 0.267

RRIRIRPPRLPRPRPRPGTDPRP
shrunken log2 fold change: -0.114

RRIRIRPPRLPRPRPRPGWEPRP
shrunken log2 fold change: 0.0557

RRIRIRPPRLPRPRPRPHAFPRP
shrunken log2 fold change: -0.0152

RRIRIRPPRLPRPRPRPHDSPRP
shrunken log2 fold change: -0.398

RRIRIRPPRLPRPRPRPHFGPRP
shrunken log2 fold change: -0.00693

RRIRIRPPRLPRPRPRPHHQPRP
shrunken log2 fold change: -0.41

RRIRIRPPRLPRPRPRPHKFPRP
shrunken log2 fold change: -0.291

RRIRIRPPRLPRPRPRPHNEPRP
shrunken log2 fold change: -1.35

RRIRIRPPRLPRPRPRPHNPPRP
shrunken log2 fold change: -1.23

RRIRIRPPRLPRPRPRPHNYPRP
shrunken log2 fold change: -0.376

RRIRIRPPRLPRPRPRPHPQPRP
shrunken log2 fold change: -0.0725

RRIRIRPPRLPRPRPRPHQEPRP
shrunken log2 fold change: -0.01

RRIRIRPPRLPRPRPRPHQRPRP
shrunken log2 fold change: -0.137

RRIRIRPPRLPRPRPRPHRDPRP
shrunken log2 fold change: -0.236

RRIRIRPPRLPRPRPRPHSEPRP
shrunken log2 fold change: -0.13

RRIRIRPPRLPRPRPRPHSHPRP
shrunken log2 fold change: -0.912

RRIRIRPPRLPRPRPRPHSTPRP
shrunken log2 fold change: -0.428

RRIRIRPPRLPRPRPRPHVFPRP
shrunken log2 fold change: 0.064

RRIRIRPPRLPRPRPRPHWLPRP
shrunken log2 fold change: -0.49

RRIRIRPPRLPRPRPRPHYRPRP
shrunken log2 fold change: -0.204

RRIRIRPPRLPRPRPRPHYWPRP
shrunken log2 fold change: -0.85

RRIRIRPPRLPRPRPRPIAFPRP
shrunken log2 fold change: -0.0789

RRIRIRPPRLPRPRPRPIDMPRP
shrunken log2 fold change: -0.0681
